For the experiment, the target named is thrombin.

The substance recombinant AsKunitz (natural protein) displayed an inhibition of the enzymatic activity of thrombin on a chromogenic substrate (Vmax against the reaction without inhibitor), IC50 of 650 nM.

For the origin of these results see publication PMC7901972.
